Drawing on patent US20210063414A1, “METHODS FOR PREVENTING AND/OR TREATING BONE LOSS CONDITIONS BY MODULATING IRISIN” (Dana-Farber Cancer Institute, Inc., priority 2018, published 2021), this text covers TMT signal-to-noise ratio for one substance.

Common to all, as to test: Crosslinking/co-immunoprecipitation/mass spectrometry (TMT quantitative proteomics) to identify irisin receptors
Common to all, as to type: binding

In test [1] the target is T1, MLO-Y4 cell surface proteins (Mus musculus, UniProt P63038).
T1 construct: endogenous in cells; host or cells: MLO-Y4
The note with it: co-precipitated protein Hspd1 (CH60_MOUSE). On the procedure: (§1) MLO-Y4 cells were seeded on 30×150 mm type-I collagen coated dishes as described in cell culture experiment. At 60% cell density, medium was switched to FreeStyle™ 293 Expression medium. After 4 hours incubation, the cells were chilled on ice for 10 minutes, followed by treatment of 10 nM his-tag irisin or his-tag adipsin for 20 minutes. The cells were then incubated with 1.5 mM DTSSP for 30 minutes on ice to do cross-linking, after washing with 15 ml cold PBS twice. The cross-linking was quenched by addition of a final concentration of 20 mM Tris-pH 7.5. The cells were then harvested and homogenized in 1 ml RIPA buffer containing proteaseinhibitor cocktailand phosphatase-inhibitor cocktail. Whole-cell lysates were homogenized by 10 times passages through a 22G needle fitted to a 3 ml syringe. Homogenized samples were rotated gently in cold room for 20 minutes followed by 15,000×g centrifugation for 10 minutes. After addition of a final concentration of 10 mM imidazole, supernatants were incubated with 100 μl Ni-NTA agarose for 1 hour. After centrifugation at 500×g for 1 minute, the supernatants were aspirated and 1 ml cold RIPA buffer containing 10 mM imidazole were added to the agarose. After 10 minutes rotation in cold room, the supernatants were aspirated and 1 ml cold RIPA buffer containing 30 mM imidazole were added to the agarose. After repeating the washing 3 times, 0.8 ml RIPA buffer containing 250 mM imidazole was added and the agarose was gently rotated in a cold room for 20 minutes. After centrifugation at 1000×g for 2 minutes, the supernatants were transferred to 1.5 ml tube and incubated with 100 μl 0.2% sodium deoxycholate and 100 μl 10% trichloroacetic acid in ice for 1 hour. After centrifugation at 12,000×g for 10 minutes at 4° C., the supernatants were removed and 1 ml cold acetone was added to the pellets followed by vortexing for 10 seconds. After one more washing with cold acetone, the pellets were dried at 37° C., and 39 μl PBS and 13 μl 4×NuPAGE LDS were added to the pellets with a final concentration of 5 mM DTT. Solubilized proteins were incubated at 65° C. for 20 minutes followed by incubation with a final concentration of 14 mM iodoacetamide for 45 minutes in the dark. 38 μl samples were loaded to 4-12% gradient SDS-PAGE for separation followed by Coomassie Blue staining. The gels were submitted to quantitative proteomics.
(§2) For in-gel digestions, gels were stained with Coomassie Blue and were excised into 8 equal segments for control and irisin lanes. Gel pieces were destained and dehydrated with 100% acetonitrile, vacuumed dried, and digested in 25 mM HEPES (pH 8.5) with 500 ng sequencing grade trypsin (Promega) and incubated for an overnight at 37° C. (Shevchenko et al. (1996) Anal. Chem. 68:850-858). Digests were treated with 1% formic acid and purified using C18 Stage-Tips as previously described (Rappsilber et al. (2007) Nat. Protoc. 2:1896-1906). Peptides were eluted with 70% acetonitrile and 1% formic acid, then dried using a speedvac. Isobaric labeling of digested peptides was accomplished using 6-plex tandem mass tag (TMT) reagents (Thermo Fisher Scientific, Rockford, Ill.). Reagents, 5.0 mg, were dissolved in 252 μl acetonitrile (ACN) and 5 μl of the solution was added to the digested peptides dissolved in 25 μl of 200 mM HEPES, pH 8.5. After 1 hour at room temperature, the reaction was quenched by adding 1 μl of 5% hydroxylamine. Labeled peptides were combined and acidified prior to C18 Stage-Tips desalting.
(§3) All LC-MS/MS experiments were performed on an Orbitrap Fusion™ Lumos mass spectrometer (Thermo Fisher Scientific, San Jose, Calif., USA) coupled with a Proxeon EASY-nLC™ 1200 LC pump (Thermo Fisher Scientific). Peptides were separated on a 100 μm inner diameter microcapillary column packed with 35 cm of Accucore™ C18 resin (1.8 μm, 100 Å, Thermo Fisher Scientific). […]

In test [2] the target is T2, MLO-Y4 cell surface proteins (Mus musculus, UniProt Q3U2P1).
T2 construct: endogenous in cells; host or cells: MLO-Y4
T2 sequence (Q3U2P1 1-1090): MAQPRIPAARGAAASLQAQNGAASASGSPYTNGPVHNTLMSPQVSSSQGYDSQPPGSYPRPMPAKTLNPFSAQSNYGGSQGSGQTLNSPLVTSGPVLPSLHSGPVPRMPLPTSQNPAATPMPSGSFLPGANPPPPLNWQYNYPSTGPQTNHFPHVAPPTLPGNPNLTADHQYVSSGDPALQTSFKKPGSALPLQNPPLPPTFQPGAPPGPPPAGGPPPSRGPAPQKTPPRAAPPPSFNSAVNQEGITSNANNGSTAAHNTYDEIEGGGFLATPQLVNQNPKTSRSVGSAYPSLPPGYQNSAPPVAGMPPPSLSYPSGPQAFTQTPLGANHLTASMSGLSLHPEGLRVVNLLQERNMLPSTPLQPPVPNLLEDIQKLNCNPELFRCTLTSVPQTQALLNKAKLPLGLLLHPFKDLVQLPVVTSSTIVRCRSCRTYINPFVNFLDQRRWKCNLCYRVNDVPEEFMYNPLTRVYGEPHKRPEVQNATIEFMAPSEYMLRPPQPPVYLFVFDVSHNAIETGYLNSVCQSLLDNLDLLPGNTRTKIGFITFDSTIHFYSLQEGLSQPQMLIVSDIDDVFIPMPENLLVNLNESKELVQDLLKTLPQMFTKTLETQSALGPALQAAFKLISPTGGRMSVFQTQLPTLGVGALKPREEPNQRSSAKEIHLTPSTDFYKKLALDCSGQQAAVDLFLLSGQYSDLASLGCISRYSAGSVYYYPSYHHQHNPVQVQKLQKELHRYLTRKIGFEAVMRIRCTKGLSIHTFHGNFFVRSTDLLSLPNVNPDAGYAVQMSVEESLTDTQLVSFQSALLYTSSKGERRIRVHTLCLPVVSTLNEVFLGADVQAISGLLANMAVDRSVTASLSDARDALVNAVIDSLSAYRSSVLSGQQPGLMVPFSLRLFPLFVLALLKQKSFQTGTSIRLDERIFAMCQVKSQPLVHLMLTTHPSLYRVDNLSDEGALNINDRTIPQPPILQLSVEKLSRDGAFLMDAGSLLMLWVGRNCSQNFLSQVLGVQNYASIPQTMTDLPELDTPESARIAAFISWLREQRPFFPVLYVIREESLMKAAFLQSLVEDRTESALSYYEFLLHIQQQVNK
The settings on record: co-precipitated protein Sec24a (SC24A_MOUSE). The protocol:
as §1, §2, §3

Test [3] addresses T3, MLO-Y4 cell surface proteins (Mus musculus, UniProt P09671).
T3 construct: endogenous in cells; host or cells: MLO-Y4
T3 sequence (P09671 25-222): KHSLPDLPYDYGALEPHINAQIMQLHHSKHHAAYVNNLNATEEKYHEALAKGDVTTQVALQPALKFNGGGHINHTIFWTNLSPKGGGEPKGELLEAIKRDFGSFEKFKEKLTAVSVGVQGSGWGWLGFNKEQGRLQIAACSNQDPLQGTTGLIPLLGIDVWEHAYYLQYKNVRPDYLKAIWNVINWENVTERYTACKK
The note with it: co-precipitated protein Sod2 (SODM_MOUSE). The protocol: as §1, §2, §3

T1 sequence (P63038 27-573): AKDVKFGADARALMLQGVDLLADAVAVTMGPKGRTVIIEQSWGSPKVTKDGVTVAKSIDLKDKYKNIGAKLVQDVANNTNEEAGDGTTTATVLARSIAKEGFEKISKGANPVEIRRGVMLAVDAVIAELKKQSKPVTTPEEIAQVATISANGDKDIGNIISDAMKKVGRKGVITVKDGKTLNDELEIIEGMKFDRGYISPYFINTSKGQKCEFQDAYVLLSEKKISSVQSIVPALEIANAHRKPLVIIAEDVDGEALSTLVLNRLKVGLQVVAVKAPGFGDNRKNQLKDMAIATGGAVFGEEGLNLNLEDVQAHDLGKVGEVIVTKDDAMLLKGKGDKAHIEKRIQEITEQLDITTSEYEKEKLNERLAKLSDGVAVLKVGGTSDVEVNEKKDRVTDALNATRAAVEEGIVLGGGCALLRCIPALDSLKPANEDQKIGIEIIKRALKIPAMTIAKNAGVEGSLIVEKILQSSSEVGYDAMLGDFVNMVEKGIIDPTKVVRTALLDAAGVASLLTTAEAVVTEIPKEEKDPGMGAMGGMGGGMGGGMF

For the substance adipsin, the TMT signal-to-noise ratio was determined as 4263.9 in test [1], 118.999 in test [2] and 1031.93 in test [3].
